Laboratory results as given in the nanobody polyreactivity screen of Harvey et al. (2022).

Test: yeast display, Sf9 membrane polyspecificity reagent, FACS + sequencing; frameworks hold sequencing errors
In short: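 Nanobodies came from a synthetic yeast display library in Saccharomyces cerevisiae BJ5465, induced with galactose for 36–48 hours and stained for 1 hour at 4 °C with 10% biotinylated, detergent-solubilized Sf9 membrane reagent. Cells were enriched on streptavidin microbeads and then FACS-sorted, with low and high (top ~1%) gates set on anti-HA fluorescence for expression and streptavidin fluorescence for reagent binding. Each polyreactivity label reflects the gate a clone came from. Genes were amplified by colony PCR, sequenced by MiSeq 2 × 250 and filtered by CDR length.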

Sequence	polyreactivity (PSR sort gate)
QVQLVESGGGLVQAGGSLRLSCAASGSICSLYAKGWYRQEPGKERELVAAISSSGTSTYYADSVKGRFTISRDNSKNTVYLQMNSLKLEDTAVYYCNAYRRRATYNGDYWGQGTQLTVSS	high polyreactivity
QVQLVESGGCIVQEGGSLRLSGAASGSTIRGNAMGWYRHAHGQEREFVADITRNGGRTYYADSVKGRFTISRDNAKNTVYLQMNSLKPEDTAVSYCAKRDAYFVSQRNMDYWGQGTQVTVSS	high polyreactivity
QVQLVESGGGLVQAGGSLRLSCAASGGIFYTYAMGWYRQAPGKEREFVAAISRRGSSTYYADSVKGRFTISRDNEKNTVYLQMNSLKPEDTAVYYCAKSYAPYSYANNDYWGQGTQVTVSS	low polyreactivity
QVQLVESGGGLVQAGGSLRLSCAASGSTFGSYAMGWYRQAPGKERELVADISSRGASTYYADSVKGRFTISRDNAKNTVYFQMNSLKPEDTAVYYCARDVYIWYGYGYFPEYEYWGQGTQVTVSS	low polyreactivity
QVQLVESGGGLVQAGGRLRLSCAASGRIYTAYYAMGWYIQAPGKERELVASISSSGTSTYADSVKGRFTISRDNAKNTVYLQMNSLKPEDTAVYYCATRKLRTRRYDYGYWGQGTQVTVSS	low polyreactivity
QLQLQESGGGLVQAGGSLRLSCAASGSISRMDYMAWYRQASGKERELVAAIDNGSTTYYADSVKGRLTISRDNAKYTVYLQMNSLKPEDSAVYFCAAVRGRGGTHAYWGQGTQVTVSG	low polyreactivity
QVQLVESGGGLVQAGGSLRLICAASGRIFGYYAMGWYRQAPGKERELVAAIDGSDGTTYYADSVKGRFTISRDNAKNTVYFHMNSLKPEDTAVYYCAKDNSLPDYDYWGQGTQVTVSS	low polyreactivity
QVHLVESGGGLGHAGGSLLLSCAASGSIFGRNAMGWYRQAPGKERELVADIWNGGSTYYADSVKGRFTISRDNAKNTVYLQMNILKPEDTAVYYCNADANDDGRFGGYIKYDYWGQGTQVTVSS	low polyreactivity
QVQLVESGGCLVQAGGSLRLSCDAYGSTFDDNAMGWYRQAPGKERELVAGISTNGGSTSYADSVKGRFTISRDNAKNTVYLQMNSLKPEDTAVYYCAKGLYVHFDYWGQGTQVTVSS	low polyreactivity
QVQLVESGGGLVQAGGSLRLSCAASGRTFYGYAKGWYIQAPGKERELVAAITRAGSTNYADSVKGRFTISRDNAKNTFYLQLNSLKPEDTAVYYCAAVRVHTDRYNYWGQGTQVTVSS	high polyreactivity
QVQLVESGGGLVQAGGSLRLSCAASGYIFDRYAMGWYRQAPGKERELVAAISGRGGSTYYADSVKGRFTISRDNAKNTVYLQMNSLKPEDTAVYYCARDVYVRIGQRARYDSWGQGTQVTVSS	high polyreactivity
QVQLVESGGGLVQAGGSLRLSCAASGFIFWYNAKGWYRQAPGKERELVAAISSGGSTHYADSVKGRFTISRDNAKNTVYLLMNSLKPEDTAVYYCNTDGYHSNRLDDYDYWRQGTQVTVSS	low polyreactivity
QVQLVESAGGLVQAGGSHRLSCAPSGRIFGGNAMGWYRRAPGKERELVAGISRRGGSTYYADSVKGRFTITRDNAKNTVHLQMNSLKPEDTAVYYCNAYYRYSVFAEKYDYWGEGTQVTVSS	high polyreactivity
QVQLVESGGGLVQAGGSLRLSCAASGLIFYDNMGWSRQAPGKERELVAAISSSGGSTSYADSVKGRFTISRDNAKNTVYVQMNSLKPVDTAVYYCAADSYPAYLGFVGFDYWGQGTQVTVSS	low polyreactivity
QVQLVESGGGLDQAGGSLRLSCPASGRIFPINAMGRYRQAPGKERELVAAISYSRGSTYYADSVKGRFTISRDNAKNTVYLQMNSLKPEDTAVYYCNARYPYSYYHRYYYWGQGTQVSVSS	high polyreactivity
QVQLVESGGGLVQAGGSLRLSCAASGSIFDRNAMGWYRQAPGKERELVSAINSNGGITYYADSVKGRFTISRDNAKNTVYLQMNSLKPEDTAVYYCAAVIRVVYREDHCGQGTQVTVSS	low polyreactivity
QVQLVESGGGLVQAGGSLRLSCAASGSIFVGNAMGWYRQAPAKERELVDTISWSGGSTYYADSVKGRFTISRDNAKNTVYVQMTSLKPEDTAVYYCAKTPYRRYRYGCYTYRTYDYWGHGTQVTVSS	low polyreactivity
QVQLVESGGGLVQAGGSLRLSCAASGITFSSYAMGWSRQAPGKERELVAAISSGGSTYYADSVKGRFTISRDNAKNTVYLQMNSLKPEDTAVYYCRPLVTLDWYKFGYWGQGTQVTVSS	low polyreactivity
QVQLLESVGGLVQAGGRLRLTCDATGSIFRYYAMGWYRQEPGKERELVATISSGGRTYYADSVKGRFTISRDNAKNTVYLQMNSLKPEDTAVYYCAKVGWSRRYYYWGQGTQVTVSS	high polyreactivity
QVQLVESGGGLVQAGGSLRLSCAASGRTFGGYVMGWYRQAPGKESELVATITDSGGSTHYADSVKGRFTISRDNAKNTVYLQMNSLKPEDTAVYYCARRRSYRYPSEYNYWGQGTQVTVSS	high polyreactivity
QVQLVESGGGLVQAGGSLRLSCAASGRTFARYTMGWYRQAPGKERELVASITRGGSTYYADSVKGRFTISRDNAKNTVYVQMNSLKPEDTAVYYCAARFPQHNYWAMDYWGQGTQVTVSS	high polyreactivity
QVQIVESGGGLVQAGCILRLSCAASGSTFYVNAMGWYRQAPGKEWELVAVISTGGSTYYADSVKGRFTISRDNAKNTVYLQMNSLKPEDTAVYYCAKRDLPDCSGTPNVIPFDYWGQGTQVTVSS	low polyreactivity

Sequence	polyreactivity (PSR sort gate)
QVQLVESGGGLVQAAGSLRLSCAASGLTFFGYAMGWYRQAPGKERELVAAISSSGTRTYYADSVKGRFTISRDHAKNTVYLQMNSLKPEDTAFYYCASGRYQEYDYWGQGTQVTVSS	high polyreactivity
QVQLVESGGGLVQAGGSLRLSCAASGNIFRYNAMGWYRQAPGKERELVAAISSGGSTYYADSVKGRFTISRDNAKNTVYLQMNSLKPEDTAVYYCNRRRWLWQTARGDYWGQGTQVTVSS	high polyreactivity
QVQLVESGGGLVQAGGTLRLSCADSGSTIRNYAMGWYRQAPGKERELVATISASGGSTYYADSVKGRFTISRDNAKNTVYLQLNSLKPEDTAVYYCNAVVKLWGLVIPPGDYDYWRQGTQVTVSS	high polyreactivity
QVQLVESGGGLVQAGGSLRLSCAASGSTFEPYAMGWYRQAPGKEREFVAAISGSGGSTYYADSVKGRFTISRDNAKNTVYLQMNSLKPEDTAVSYCAKDSFPWVDDDYWGQATQVTVSS	low polyreactivity
QVQLVESGGGLVQAGGCLRLSCDASGFTFAFYAMGWYRQAPGKEIELVAAISRRGGSTTYADSVKGRFTISRDNAKNTVYLQMHSLKPEDTAVYYCNAVSTRNPGPDSYYWGQGTQVTVSS	high polyreactivity
QVQLVESGGGLVHAGGSLRLSCSASGFTFYKYAMGWYRQAPGKERELVAAFSYSGGSTYYADSVKGRFTISRDNAKNTVYLQMNSLKPEDTAVYYCAARVRGTGYNSWGQGTLVTVSS	high polyreactivity
QVQLVESGGGLVQGGSLRLSCAASGFTFPIYVMGGYRQAPGKERELVASISSVGSTNYADSVKGRFTISRDNAKNTVYLQMNSLKPEDTAVYYCNADAPNSYGGFDYWGQGTQVTVSS	low polyreactivity
QVQLVESGGRLVQAGGSLRLSSAASGSTFVDYDMGWDRQAPGKERELVAAISGSGGRTYYADSVKGRFTISRDTAKNTVYLQLISVKPEDTAVYYCAAVNAGGELAYWGQGTQVTVSS	high polyreactivity
QVQLVESGGGLVQAGGSLRLSCAASGFTFGWYAMGWYRQAPGKEREFVAAISQTGGSTYYADSVKGRFTISRDNAKNTVYLQMNSLKPEDTAVYYCAAPGKRRGVYYWGQGTQVTVSS	high polyreactivity
QGQLVESGGGLVQAGGSLRLSCAASGFTFSPYAMGSYRQAPGKERELVAVISGGGSTYYADSVKGRFTISRDNAKNTVYLQMNSLKPEDTAVYYCAKRFYRSYYWGQGTQVTVSS	high polyreactivity
QGQLVESGGGLVQAGGSLRLSCAASGSTFAYYAMGWYIPAPGKERELVAAITSRGGSTYYADSVKGRFTISRDNAKNTVYLQMNSLKPEDTAVYYCAAVTRNQGSYRYYYWGQGTQVTVSS	high polyreactivity
QVQLVDSGGGLVQAGGSLRLSFAASGNIIYQNAMGWDRQAPGKERELVAAISSGGSTNYADSVKGRFTISRDNAKITVYLQMNSLKPEDTAVYYCAAEHWTESVWDDSWGQGTQVTVSS	low polyreactivity
QVQLVESGGGLVQAGGSLRLSCPASGITFVPNAMGWYRQAPGKERELVARIDNGVSTNYADSVKGRFTISRDNAKNTVYLQMNSLKPEDTAVYYCAKDGYWGDWDLDYWGQGTQVTVSS	low polyreactivity
QVQLVESGGGLVQAGGSLRLSCAASGSIFIGYGMGWYRQAPGKERELVAAITSGSITNYADSVKGRFTISRDNAKNTVYLQMNSLKPEDTAVYNCNADVNFIDDDYWGQGTQVTVSA	low polyreactivity
QVQLVESGGGLVQAGGSLRLSCAASGSTFAVYSMGWYTQAPGKERELVADSSYSGGSTYYADSVKGRFTISRDNAKNTVYLQMNSLIPEDTAVYYCAADWYDWLSTYDDWGQGTQVTVSS	low polyreactivity
QVQLVESGGGLVQAGGSLRLSCAASGSIFRYNAMGWYRQAPGKETELVAAISASGGRTHYADSVKGRFTISRDNAKNTVYLQMNSLKPEDTAVYYCAAATYRGTSLYGYWGQGTQVTVSS	high polyreactivity
QVQLVESGGGLVQAGCSLRLSCAASGSIIIGNAMGWYRKSPGKERELVAVINGSDGTTYYADSVKGRFTNSRDNAKNTVYLQMNSLKPEDTAVYYCNADFIDPSVYDYNYWGQGTQVTVSS	low polyreactivity
QVQLVESGGGLVQAGGSLRLSCAASGRTVKPYAMGWYRQAPGKERELVAAISSGVSTHYADSVKGRFTISRDNAKNSVYLQMNSLKPEDTAVYYCDADDWVNYWFDYWGQGTQVTVSS	low polyreactivity
QVQLVESGGGLVQAGGSLRLSCAASGSIFRYYAMGWYRQAPGKERELVANISRGGRTYYADSVKGRFTISRDNAKYTVYLQLHSLNPEDTSVYYCAAGYWFSYSRVTRYDYWGQGTQVTVSS	high polyreactivity
QVQLVESGGGIVQAGGSLRLSCAASGLILYWYAMGLYRQAPGKERYLVAAISISGGSTYYADSVKGRFTISRDNAKNTVYLQMNSLKPEDTAVYYCAAVYFYSWEGDGDYWGQGTQVTVSS	low polyreactivity
QVQLVESGGRLVQAGGSLRLSCAASGFIFSRYAMGWSRQAPGKERELVAAISRGGSTNYADSVMGRFTISRDNAKNTVYLQMNSLKPEDTAVYYCAVRQIVRYYYWGQGTQVTVSS	high polyreactivity
